{"source": "patent US8129345B2", "about": "“MUC1-IκB kinase complexes and their activities” (Dana-Farber Cancer Institute, Inc., priority 2006, dated 2012)", "target": "T1, IKKβ (Homo sapiens, UniProt O14920)", "T1 sequence (O14920 1-756)": "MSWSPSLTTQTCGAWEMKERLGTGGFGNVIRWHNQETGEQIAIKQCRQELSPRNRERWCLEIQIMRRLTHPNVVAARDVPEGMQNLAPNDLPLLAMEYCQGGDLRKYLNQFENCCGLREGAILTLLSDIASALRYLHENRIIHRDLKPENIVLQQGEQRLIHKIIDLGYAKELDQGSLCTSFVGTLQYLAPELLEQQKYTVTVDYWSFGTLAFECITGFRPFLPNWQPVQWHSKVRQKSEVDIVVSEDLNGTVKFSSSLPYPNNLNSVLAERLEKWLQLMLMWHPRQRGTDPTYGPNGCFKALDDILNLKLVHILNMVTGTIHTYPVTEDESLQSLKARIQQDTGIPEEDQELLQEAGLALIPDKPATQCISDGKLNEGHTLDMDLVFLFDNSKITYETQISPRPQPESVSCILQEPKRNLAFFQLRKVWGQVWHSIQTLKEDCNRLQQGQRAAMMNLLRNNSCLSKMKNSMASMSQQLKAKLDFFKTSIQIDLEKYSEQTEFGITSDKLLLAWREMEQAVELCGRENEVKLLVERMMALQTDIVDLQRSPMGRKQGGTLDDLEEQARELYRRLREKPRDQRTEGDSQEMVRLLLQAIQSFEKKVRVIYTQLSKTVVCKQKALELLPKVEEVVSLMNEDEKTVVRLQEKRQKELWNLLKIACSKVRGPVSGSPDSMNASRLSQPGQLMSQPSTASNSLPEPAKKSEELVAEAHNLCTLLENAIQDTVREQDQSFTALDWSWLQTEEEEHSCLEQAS", "test": "In vitro GST pull-down binding to IKKβ", "conditions": "GST pull-down with purified proteins, immunoblot", "procedure": "FIG. 4B is a pair of photographs of immunoblots. Recombinantly expressed, purified GST- and GST-IKKβ proteins bound to glutathione-agarose beads were incubated with purified MUC1-CD protein. The precipitates were immunoblotted (IB) with anti-MUC1-C antibodies. Input of the GST and GST-IKKβ proteins was assessed by Coomassie blue staining. The molecular weights of proteins (as indicated on the left of the photographs) are expressed as kilodaltons (kDa).\nFIG. 4C (top panel) is a schematic diagram of the amino acid sequence of (i) the MUC1-cytoplasmic domain (MUC1-CD) [amino acids 1-72; SEQ ID NO:2]; (ii) the MUC1-CD fragment [amino acids 1-45; SEQ ID NO:3]; and (iii) the MUC-CD fragment [amino acids 46-72; SEQ ID NO:4]. FIG. 4C (bottom panel) is a photograph of an immunoblot and a photograph of a Coomassie blue-stained electrophoretic gel. GST- and the indicated GST-MUC1-CD fusion proteins bound to glutathione beads were incubated with purified IKKβ. The precipitates were immunoblotted with anti-IKKβ. Input of the GST and GST-MUC1-CD fusion proteins was assessed by Coomassie blue staining. The molecular weights of proteins (as indicated on the left of the photographs) are expressed as kilodaltons (kDa).\nFIG. 11A is a pair of photographs of an immunoblot and Coomassie-blue stained gel. GST and the indicated GST-MUC1-CD fusion proteins (MUC1-CD and MUC1-CD(mSRM)) bound to glutathione beads were incubated with IKKβ. The precipitates were immunoblotted (IB) with an anti-IKKβ antibody. Commassie blue staining of the gel was performed to confirm that equal amounts of GST- and GST-MUC1-CD proteins were used in the experiment. The molecular weights of proteins (as indicated on the left of the photographs) are expressed as kilodaltons (kDa).\nIn vitro binding assays. Purified GST-MUC1-CD (glutathione s-transferase fused to the MUC1-CD polypeptide) was cleaved with thrombin to remove the GST moiety. […] Adsorbates to glutathione-conjugated beads were analyzed by immunoblotting."}
{"substance": "MUC1-CD: 72 amino acid cytoplasmic domain of human MUC1, SEQ ID NO:2", "values": [{"measurement": "binding to IKKβ", "result": "interact directly"}]}
